Biological target: anti-CD52 IgG1-RGY (alemtuzumab with E345R, E430G and S440Y)
Assay: native MS; anti-CD52 IgG1-RGY at a total IgG1 concentration of 2 µM, no peptide; 150 mM ammonium acetate pH 7.5; monomer and hexamer in solution

stoichiometry N: 6
B1: anti-CD52 IgG1-RGY (alemtuzumab with E345R, E430G and S440Y) (antibody, V domains shown)
VH: QVQLQESGPGLVRPSQTLSLTCTVSGFTFTDFYMNWVRQPPGRGLEWIGFIRDKAKGYTTEYNPSVKGRVTMLVDTSKNQFSLRLSSVTAADTAVYYCAREGHTAAPFDYWGQGSLVTVSS
VL: DIQMTQSPSSLSASVGDRVTITCKASQNIDKYLNWYQQKPGKAPKLLIYNTNNLQTGVPSRFSGSGSGTDFTFTISSLQPEDIATYYCLQHISRPRTFGQGTKVEIK

Reference: article PMC10032657
